For experiment [1], the target named is scrib_human SCRIB (UniProt Q14160).
A further experiment deals with dlg1_human DLG1 (UniProt Q12959).
Experiment [2] deals with ks6a2_human RPS6KA2 (UniProt Q15349).
Experiment [3] has as its target crcm_human MCC (UniProt P23508).
Experiment [4] has the same target. This is another data set of the same source.
The target in experiment [5] is ks6a2_human RPS6KA2 (UniProt Q15349). The source holds these as a separate data set.
Experiment [6] deals with scrib_human SCRIB (UniProt Q14160). This is another data set of the same source.
For experiment [7] the target is unchanged. This is another data set of the same source.

scrib_human SCRIB, sequence (Q14160 whole entry): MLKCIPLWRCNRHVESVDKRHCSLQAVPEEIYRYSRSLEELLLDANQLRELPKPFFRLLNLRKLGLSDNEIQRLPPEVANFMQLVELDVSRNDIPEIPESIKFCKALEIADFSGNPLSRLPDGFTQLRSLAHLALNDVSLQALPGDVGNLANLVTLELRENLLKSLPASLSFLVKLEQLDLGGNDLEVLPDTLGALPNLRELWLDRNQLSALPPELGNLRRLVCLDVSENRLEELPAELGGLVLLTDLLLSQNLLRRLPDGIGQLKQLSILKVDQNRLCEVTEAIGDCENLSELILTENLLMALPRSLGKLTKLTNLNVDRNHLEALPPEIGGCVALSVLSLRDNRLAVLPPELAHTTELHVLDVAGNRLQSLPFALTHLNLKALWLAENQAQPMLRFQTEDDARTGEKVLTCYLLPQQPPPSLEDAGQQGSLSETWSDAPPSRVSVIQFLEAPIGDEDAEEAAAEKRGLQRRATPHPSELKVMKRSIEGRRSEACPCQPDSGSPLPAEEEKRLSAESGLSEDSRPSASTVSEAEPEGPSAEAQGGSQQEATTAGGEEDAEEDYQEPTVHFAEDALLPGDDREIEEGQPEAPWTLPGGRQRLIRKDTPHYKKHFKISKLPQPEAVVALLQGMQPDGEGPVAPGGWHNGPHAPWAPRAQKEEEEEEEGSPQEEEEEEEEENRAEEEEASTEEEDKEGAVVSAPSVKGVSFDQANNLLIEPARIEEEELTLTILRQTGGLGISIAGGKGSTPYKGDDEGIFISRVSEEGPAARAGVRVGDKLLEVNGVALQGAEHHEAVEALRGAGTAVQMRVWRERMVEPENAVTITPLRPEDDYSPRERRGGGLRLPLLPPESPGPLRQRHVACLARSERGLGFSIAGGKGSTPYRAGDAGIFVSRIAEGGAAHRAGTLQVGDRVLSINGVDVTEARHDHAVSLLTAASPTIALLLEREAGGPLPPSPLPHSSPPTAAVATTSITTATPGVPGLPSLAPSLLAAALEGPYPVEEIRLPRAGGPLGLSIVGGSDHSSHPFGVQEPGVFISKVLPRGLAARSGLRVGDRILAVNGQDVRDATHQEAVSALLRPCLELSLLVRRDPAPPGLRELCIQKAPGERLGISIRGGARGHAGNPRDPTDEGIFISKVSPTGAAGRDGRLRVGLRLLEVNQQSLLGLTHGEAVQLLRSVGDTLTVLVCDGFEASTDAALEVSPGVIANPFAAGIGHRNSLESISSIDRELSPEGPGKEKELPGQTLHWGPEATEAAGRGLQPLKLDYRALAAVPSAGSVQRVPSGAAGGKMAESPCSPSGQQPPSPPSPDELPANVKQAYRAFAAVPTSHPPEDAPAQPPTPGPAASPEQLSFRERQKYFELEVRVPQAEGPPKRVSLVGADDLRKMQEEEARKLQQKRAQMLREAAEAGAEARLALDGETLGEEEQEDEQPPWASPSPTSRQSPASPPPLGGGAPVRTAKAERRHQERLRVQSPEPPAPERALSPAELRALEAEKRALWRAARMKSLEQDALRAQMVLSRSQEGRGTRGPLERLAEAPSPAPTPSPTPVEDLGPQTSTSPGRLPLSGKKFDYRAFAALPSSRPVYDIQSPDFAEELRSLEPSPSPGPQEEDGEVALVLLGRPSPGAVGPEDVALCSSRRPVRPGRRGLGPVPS
crcm_human MCC, sequence (P23508 whole entry): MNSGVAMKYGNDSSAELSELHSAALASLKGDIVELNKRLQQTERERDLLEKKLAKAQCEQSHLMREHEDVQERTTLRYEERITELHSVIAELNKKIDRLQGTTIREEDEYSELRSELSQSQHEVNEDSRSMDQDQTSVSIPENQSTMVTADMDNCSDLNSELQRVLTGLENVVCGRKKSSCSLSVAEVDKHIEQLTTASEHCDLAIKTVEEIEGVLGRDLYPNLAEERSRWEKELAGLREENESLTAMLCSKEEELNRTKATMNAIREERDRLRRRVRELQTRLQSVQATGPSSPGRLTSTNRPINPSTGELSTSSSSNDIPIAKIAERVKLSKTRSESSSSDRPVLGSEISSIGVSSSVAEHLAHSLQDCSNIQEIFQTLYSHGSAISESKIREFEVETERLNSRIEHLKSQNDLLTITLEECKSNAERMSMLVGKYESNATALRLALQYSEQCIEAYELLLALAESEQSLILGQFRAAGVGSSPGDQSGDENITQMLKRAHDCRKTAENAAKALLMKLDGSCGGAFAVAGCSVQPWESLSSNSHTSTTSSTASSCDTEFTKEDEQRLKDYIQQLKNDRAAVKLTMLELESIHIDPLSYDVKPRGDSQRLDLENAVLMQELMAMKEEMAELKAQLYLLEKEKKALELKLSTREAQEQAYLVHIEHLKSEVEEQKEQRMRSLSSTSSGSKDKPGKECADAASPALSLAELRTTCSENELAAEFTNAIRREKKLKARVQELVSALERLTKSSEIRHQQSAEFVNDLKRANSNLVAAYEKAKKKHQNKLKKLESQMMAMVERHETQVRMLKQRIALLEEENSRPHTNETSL
ks6a2_human RPS6KA2, sequence (Q15349 whole entry): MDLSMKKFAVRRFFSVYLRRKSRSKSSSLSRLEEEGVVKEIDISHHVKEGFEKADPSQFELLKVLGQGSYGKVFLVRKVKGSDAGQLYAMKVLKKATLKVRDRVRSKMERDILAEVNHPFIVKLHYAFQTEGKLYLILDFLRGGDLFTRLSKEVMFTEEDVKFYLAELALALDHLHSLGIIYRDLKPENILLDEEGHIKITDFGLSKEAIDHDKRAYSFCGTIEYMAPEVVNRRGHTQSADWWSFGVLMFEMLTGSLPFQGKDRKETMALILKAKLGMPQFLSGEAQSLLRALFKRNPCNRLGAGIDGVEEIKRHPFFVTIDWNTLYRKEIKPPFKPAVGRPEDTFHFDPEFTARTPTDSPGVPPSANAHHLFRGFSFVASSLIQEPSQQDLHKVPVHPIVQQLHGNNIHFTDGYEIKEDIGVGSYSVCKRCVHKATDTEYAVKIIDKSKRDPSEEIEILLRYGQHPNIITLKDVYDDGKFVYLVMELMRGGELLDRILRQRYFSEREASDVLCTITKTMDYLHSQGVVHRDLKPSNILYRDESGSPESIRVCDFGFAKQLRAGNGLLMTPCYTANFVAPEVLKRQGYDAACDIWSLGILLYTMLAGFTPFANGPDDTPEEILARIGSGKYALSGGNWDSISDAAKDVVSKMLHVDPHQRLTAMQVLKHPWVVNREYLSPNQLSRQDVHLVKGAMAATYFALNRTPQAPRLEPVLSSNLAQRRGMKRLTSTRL
Wilms tumor protein 1-interacting protein (Homo sapiens), A6NIX2 S422E, sequence (A6NIX2 whole entry S422E): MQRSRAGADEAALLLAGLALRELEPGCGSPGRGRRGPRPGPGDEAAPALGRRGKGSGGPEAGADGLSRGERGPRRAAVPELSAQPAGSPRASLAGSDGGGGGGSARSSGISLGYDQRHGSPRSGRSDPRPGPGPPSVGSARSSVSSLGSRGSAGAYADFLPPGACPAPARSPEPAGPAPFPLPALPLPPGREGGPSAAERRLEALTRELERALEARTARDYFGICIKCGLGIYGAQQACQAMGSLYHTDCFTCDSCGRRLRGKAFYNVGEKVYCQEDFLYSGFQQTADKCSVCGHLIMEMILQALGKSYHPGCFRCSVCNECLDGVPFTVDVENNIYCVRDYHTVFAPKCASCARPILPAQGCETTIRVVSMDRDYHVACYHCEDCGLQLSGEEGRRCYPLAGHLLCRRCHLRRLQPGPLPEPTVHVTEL
dlg1_human DLG1, sequence (Q12959 whole entry, looked up): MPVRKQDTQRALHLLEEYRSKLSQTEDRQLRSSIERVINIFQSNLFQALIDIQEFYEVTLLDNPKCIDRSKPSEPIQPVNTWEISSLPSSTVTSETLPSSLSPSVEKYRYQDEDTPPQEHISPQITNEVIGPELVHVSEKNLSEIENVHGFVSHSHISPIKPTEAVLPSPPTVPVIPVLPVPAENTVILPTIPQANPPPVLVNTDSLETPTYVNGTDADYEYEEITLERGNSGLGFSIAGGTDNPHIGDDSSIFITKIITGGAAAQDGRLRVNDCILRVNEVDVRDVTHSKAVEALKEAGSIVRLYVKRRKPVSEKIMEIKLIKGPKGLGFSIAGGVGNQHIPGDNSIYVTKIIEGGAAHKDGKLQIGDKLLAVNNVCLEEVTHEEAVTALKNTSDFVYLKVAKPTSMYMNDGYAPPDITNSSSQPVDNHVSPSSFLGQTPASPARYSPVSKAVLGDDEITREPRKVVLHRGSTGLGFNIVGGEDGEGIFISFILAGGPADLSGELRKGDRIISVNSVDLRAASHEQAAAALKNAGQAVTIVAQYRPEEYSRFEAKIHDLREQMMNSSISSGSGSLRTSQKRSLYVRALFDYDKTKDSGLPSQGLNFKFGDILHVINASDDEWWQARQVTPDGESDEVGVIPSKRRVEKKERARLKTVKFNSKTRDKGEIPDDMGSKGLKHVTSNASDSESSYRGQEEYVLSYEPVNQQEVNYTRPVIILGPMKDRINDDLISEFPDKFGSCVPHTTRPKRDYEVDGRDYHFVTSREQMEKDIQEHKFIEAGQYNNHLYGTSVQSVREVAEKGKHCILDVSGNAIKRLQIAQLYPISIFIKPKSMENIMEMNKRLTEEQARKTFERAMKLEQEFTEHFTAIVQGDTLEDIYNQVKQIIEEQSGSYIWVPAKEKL

On to “Protein TANC1 (Homo sapiens), Q9C0D5 S1855E”, for which the “effect of a mutation on the interaction” value with scrib_human SCRIB [1] and in the experiment with dlg1_human DLG1 was “decreasing interaction strength” each time.
For “Protein scribble homolog (Homo sapiens), Q14160 A743R”, the “effect of a mutation on the interaction” value with ks6a2_human RPS6KA2 [2] is reported as “increasing interaction strength”.
For “Protein scribble homolog (Homo sapiens), Q14160 A743R;R762A”, the figures for the “effect of a mutation on the interaction” value in the experiment with crcm_human MCC [3], in the experiment with crcm_human MCC [4] and with ks6a2_human RPS6KA2 [2] were “decreasing interaction strength”, “with no effect” and “decreasing interaction strength”, respectively.
“Protein scribble homolog (Homo sapiens), Q14160 R762A”: the results for the “effect of a mutation on the interaction” value with crcm_human MCC [3], with ks6a2_human RPS6KA2 [2] and with ks6a2_human RPS6KA2 [5] were “decreasing interaction strength”, “decreasing interaction strength” and “increasing interaction strength”, respectively.
Consider “Protein scribble homolog (Homo sapiens), Q14160 K746A”, for which the results for the “effect of a mutation on the interaction” value with ks6a2_human RPS6KA2 [2] and in the experiment with ks6a2_human RPS6KA2 [5] were “decreasing interaction strength” and “increasing interaction strength”, respectively.
For the substance “Asparagine synthetase domain-containing protein 1 (Homo sapiens), Q9NWL6 T641E”, the “effect of a mutation on the interaction” value in the experiment with scrib_human SCRIB [6] was “disrupting interaction strength”.
For the substance “Protein scribble homolog (Homo sapiens), Q14160 R801A”, the “effect of a mutation on the interaction” value with ks6a2_human RPS6KA2 [2] is “decreasing interaction strength”.
Take “Wilms tumor protein 1-interacting protein (Homo sapiens), A6NIX2 S422E”: the “effect of a mutation on the interaction” value with scrib_human SCRIB [7] is reported as “with no effect”.

Values taken from IntAct's records for PubMed 30126976.
